Measured values published in FireProtDB (doi:10.1016/s0167-4838(98)00243-x).

Details: Streptomyces sp. (strain N174), pH 7, Thermal, sodium phosphate 50 mM, whole UniProt chain shown
[1] = CD, transition: 3, reversible: yes(85%)
[2] = Fluorescence, reversible: yes(75%)

B1: Chitosanase wild type, P33665 (protein)
chain: MHSQHRTARIALAVVLTAIPASLATAGVGYASTQASTAVKAGAGLDDPHKKEIAMELVSSAENSSLDWKAQYKYIEDIGDGRGYTGGIIGFCSGTGDMLELVQHYTDLEPGNILAKYLPALKKVNGSASHSGLGTPFTKDWATAAKDTVFQQAQNDERDRVYFDPAVSQAKADGLRALGQFAYYDAIVMHGPGNDPTSFGGIRKTAMKKARTPAQGGDETTYLNAFLDARKAAMLTEAAHDDTSRVDTEQRVFLKAGNLDLNPPLKWKTYGDPYVINS
In the case of B1, the Tm [1] is reported as 42.7 °C, the “unfolding enthalpy (van 't Hoff)” value [1] is reported as 120 kcal/mol and the Tm [2] is reported as 43.2 °C. For the same protein, the “unfolding enthalpy (van 't Hoff)” value [2] was 161 kcal/mol.
